Laboratory results from FireProtDB (doi:10.1021/bi061295h).
Values joined by “and” are separate entries in the source; they are usually repeats but may differ in a detail not shown here. Equal values may be shown once.

Details: 25 °C, reversible: Yes, whole UniProt chain shown
[1] = Bos taurus, pH 7.4, GdnHCl, CD, Tris 20 mM
[2] = Rattus norvegicus, pH 7.5, Urea, Fluorescence, Sodium phosphate 20 mM, KCl 100 mM

Protein | denaturant m value [1] | unfolding free energy [1] | denaturant m value (Bos taurus, pH 7.4, GdnHCl, SUPREX, Sodium phosphate 20 mM) | denaturant m value [2] | unfolding free energy [2] | denaturant m value (Rattus norvegicus, pH 7.5, Urea, SUPREX, Sodium phosphate 20 mM, KCl 100 mM)
Alpha-lactalbumin wild type, P00711 (protein) MMSFVSLLLVGILFHATQAEQLTKCEVFRELKDLKGYGGVSLPEWVCTTFHTSGYDTQAIVQNNDSTEYGLFQINNKIWCKDDQNPHSSNICNISCDKFLDDDLTDDIMCVKKILDKVGINYWLAHKALCSEKLDQWLCEKL | 1.4 kcal/mol/M | 3 kcal/mol | 1.6 kcal/mol/M |  |  | 
Fatty acid-binding protein, intestinal wild type, P02693 (protein) MAFDGTWKVDRNENYEKFMEKMGINVVKRKLGAHDNLKLTITQEGNKFTVKESSNFRNIDVVFELGVDFAYSLADGTELTGTWTMEGNKLVGKFKRVDNGKELIAVREISGNELIQTYTYEGVEAKRIFKKE |  |  |  | 1.7 kcal/mol/M | 9.2 kcal/mol | 1 kcal/mol/M and 2.7 kcal/mol/M and 0.9 kcal/mol/M
